# US20070256687A1, “Enhanced Medical Product” (priority 2004, published 2007)
# Experiment: Emitted dose of volumetrically dosed API/excipient mixtures delivered by a proprietary DPI
# Assay type: physicochemical
# Excerpt: In the course of developing methods and products according to the present invention different APIs were mixed with excipients in different ratios. The objectives were to find inter alia suitable formulations and methods of filling doses, but also to optimize inhaler techniques and interaction between inhaler and dose container. Table 1 below discloses some examples of volumetrically dosed mixtures API/excipient and the resulting emitted dose when delivered by a proprietary DPI. […] The objective was to find suitable excipients and to see how different mixing ratios affected the emitted dose. The mixtures were produced under laboratory conditions in small quantities and remained quasi-stable under the run of tests. The emitted dose as percentage of total recovered dose was measured and the results were used in the development of the current invention.
# [1] = excipient Mannitole, ratio API/excipient 50/50, proprietary DPI
# [2] = excipient Respitose®, ratio API/excipient 20/80, proprietary DPI
substance,measurement,setting,value
insulin [Micronized insulin],Emitted Dose in % of recovered dose,[1],83 % of recovered dose
same,Retention in % of recovered dose,[1],17 % of recovered dose
same,Emitted Dose in % of recovered dose,[2],93 % of recovered dose
same,Retention in % of recovered dose,[2],7 % of recovered dose
